Biological target: T1, 15-mer H3K4me2 histone tail peptide (histone H3 tail dimethylated at lysine 4) (dimethyl-lysine at K4)
T1 construct: histone H3 N-terminal tail, 15-mer peptide, K4 dimethylated; numbers count on: the mature protein (A1 is the N-terminal residue); Surmise: residues 1-15 of the mature histone H3 (A1 to A15); also called dimethylated histone H3 tail peptide
Assay: ITC; H3K4me2 peptide injected (19 x 2 ul) into the protein; 25 °C; 25 mM Tris pH 8.0, 100 mM NaCl; iTC 200; one-site model
Settings: both partners purified

Kd [µM] | Binder
10.3 | PHD_(Pygo1)–HD1_(BCL9) complex with Pygo1 W390F (complex) VYPCGICTNEVNDDQDAILCEASCQKWFHRICTGMTETAYGLLTAEASAVFGCDTCMADKDVYVFSTEMANKAAEAVLKGQVETIVSFHI
13.5 | PHD_(Pygo1)–HD1_(BCL9) complex with Pygo1 I357A (complex) VYPCGICTNEVNDDQDAALCEASCQKWFHRICTGMTETAYGLLTAEASAVWGCDTCMADKDVYVFSTEMANKAAEAVLKGQVETIVSFHI

Reference: paper PMC2927781, “Allosteric Remodelling of the Histone H3 Binding Pocket in the Pygo2 PHD Finger Triggered by Its Binding to the B9L/BCL9 Co-Factor” (Journal of Molecular Biology, 2010)
